Assay results reported in paper PMC11488661 (Science immunology, 2024).

biological target: eOD-GT8 (monomeric ligand) (Human immunodeficiency virus 1, …)

Binder | Kd
g28-D78-10_CLK09 (antibody, V domains shown) VH: QLQLVQSGADVKKPGASVKVSCKASGYTFTGYFIHWVRQAPGQGLEWMGWLNPIYGGVNYARNFQGRVTMTRDTSISTAYLELRRLKSDDTAVYYCARVAERMIFDVWGQGTMVTVSS VL: DIQMTQSPSSLSASVGDRVTIACQASQDINNYVNWYQQKPGKAPKLLIYDASNLETGVPSRFSGSGSGTDFTFTISSLQPEDIATYYCQQYEFFGGGTKVEIK | 11 nM
g28-D78-4_CLK09 (antibody, V domains shown) VH: QLQLVQSGAEVKKPGASVKVSCKASGYTFTGYFIHWIRQAPGQGLEWMGWLNPIYGGVNYARNFQGRVTMTRDTSISTAYLELKRLKSDDTAVYYCARVAERMIFDVWGQGTMVTVSS VL: DIQMTQSPSSLSASVGDRVTIACQASQDINNYVNWYQQKPGKAPKLLIYDASNLETGVPSRFSGSGSGTDFTFTISSLQPEDIATYYCQQYEFFGGGTKVEIK | 6.5 nM
g28-D78-15_CLK09 (antibody, V domains shown) VH: QLQLVQSGADVKTPGASVKVSCKASGYTFTSYFIHWVRQAPGQGLEWMGWLNPIYGAVNYARNFQDRVTMTRDTSISTAYLELRRLKSDDTAVYYCARVAERMIFDVWGQGTMVTVSS VL: DIQMTQSPSSLSASVGDRVTIACQASQDINNYVNWYQQKPGKAPKLLIYDASNLETGVPSRFSGSGSGTDFTFTISSLQPEDIATYYCQQYEFFGGGTKVEIK | 160 nM
g28-D78-20_CLK09 (antibody, V domains shown) VH: QLQLVQSGAEVKKPGASVKVSCKASGYTFTGYFIHWVRQAPGQGLEWMGWLNPIYGGVNYARNFQDRVTMTRDTSISTAYLELRRLKSDDTAVYYCARVAERMIFDVWGQGTMVTVSS VL: DIQMTQSPSSLSASVGDRVTIACQASQDINNYVNWYQQKPGKAPKLLIYDASNLETGVPSRFSGSGSGTDFTFTISSLQPEDIATYYCQQYEFFGGGTKVEIK | 6.8 nM
g28-D78-2_CLK09 (antibody, V domains shown) VH: QLQLVQSGAEVKKPGASVKVSCKASGYTFTGYFIHWVRQAPGQGLEWMGWLNPIYGGVNYARNFQGRVTMTRDTSISTAYLELKRLKSDDTAVYYCARVAERMIFDVWGQGTMVTVSS VL: DIQMTQSPSSLSASVGDRVTIACQASQDINNYVNWYQQKPGKAPKLLIYDASNLETGVPSRFSGSRSGTDFTFTISSLQPEDIATYYCQQYEFFGGGTKVRIK | 15 nM
g28-D78-13_CLK09 (antibody, V domains shown) VH: QLQLVQSGAEVKKPGASVKVSCKASGYTFTGYFIHWVRQAPGQGLEWMGWLNPIYGGVNYARNFQGRVTMTRDTSISTAYLELKRLKSDDTAVYYCARVAERMIFDVWGQGTMVTVSS VL: DIQMTQSPSSLSASVGDRVTIACQASQDINNYVNWYQQKPGKAPKLLIYDASNLETGVPSRFSGSGSGTDFTFTISSLQPEDIATYYCQQYEFFGGGTKVEIK | 11 nM
g28-D78-16_CLK09 (antibody, V domains shown) VH: QVQLVQSGAEVKKPGASVKVSCKASGYTFTGYHIHWVRQAPGQGLEWMGWVNPYHGGTNYAQIFQGRVTMTRDTSISTAYMELSRLRSDDTAVYYCALWFGEKKTFDIWGQGTMVTVSS VL: DIQMTQSPSSLSASVGDRVTITCQASQGISNFLNWFQQKPGKAPKLLIYDVSNLETGVPSRFSGSGSGTDFTFTISSLQPEDIATYYCQQYEFFGGGTKVEIK | 130 nM
g28-D78-3_CLK09 (antibody, V domains shown) VH: QLQLVQSGAEVKKPGASVKVSCKASGYTFTGYFIHWIRQAPGQGLEWMGWLNPIYGGVNYARNFQGRVTMTRDTSISTAYLELKRLKSDDTAVYYCARVAERMIFDVWGQGTMVTVSS VL: DIQMTQSPSSLSASVGDRVTIACQASQDINNYVNWYQQKPGKAPKLLIYDASNLETGVPSRFSGSGSGTDFTFTISSLQPEDIATYYCQQYEFFGGGTKVRIK | 7.1 nM
g28-D78-11_CLK09 (antibody, V domains shown) VH: QLQLVQSGADVKKPGASVKVSCKASGYTFTGYFIHWVRQAPGQGLEWMGWLNPIYGGVNYARNFQDRVTMTRDTSISTAYLELRRLKSDDTAVYYCARVAERMIFDVWGQGTMVTVSS VL: DIQMTQSPSSLSASVGDRVTIACQSSQGINNYVNWYQQKPGKAPKLLIYDASNLETGVPSRFSGSGSGTDFTFTISSLQPEDIATYYCQQYEFFGGGTKVEIK | 9 nM
g28-D78-12_CLK09 (antibody, V domains shown) VH: QLQLVQSGTEVKKPGASVKVSCKASGYTFTGYFIHWVRQAPGQGLEWMGWLNPIYGGVNYARNFQGRVTMTRDTSISTAYLELKRLKSDDAAVYYCARVAERMIFDVWGQGTMVTVSS VL: DIQMTQSPSSLSASVGDRVTIACQASQDINNYVNWYQQKPGKAPKLLIYDASNLETGVPSRFSGSGSGTDFTFTISSLQPEDIATYYCQQYEFFGGGTKVEIK | 11 nM
g28-D78-18_CLK09 (antibody, V domains shown) VH: QVQLVQSGAEVKKPGASVKVSCKASGYTFTDYHIHWVRQAPGQGLEWMGWVNPYHGGTNYAQIFQGRVTMTRDTSISTAYMELSRLRSDDTAVYYCALWFGEKKTFDIWGQGTMVTVSS VL: DIQMTQSPSSLSASVGDRVTITCQASQGISNFLNWFQQKPGKAPKLLIYDVSNLETGVPSRFSGSGSGTDFTFTISSLQPEDIATYYCQQYEFFGGGTKVEIK | 82 nM
g28-D78-14_CLK09 (antibody, V domains shown) VH: QVQLVQSGAEVKKPGASVRVSCKASGYTFTGNYIHWVRQAPGQGLEWMGWLNPINGGTNHAQKFQGRVTMTRDTSISTAYMELSRLRSDDTTVYYCARVGGLWFGKGWTFDIWGQGTMVTVSS VL: DIQMTQSPSSLSASVGDRVTITCQASQDISILNWYQQKPGKAPKLLIYGASNLETGVPSRFSGSGSGTDFTLTISSLQPEDIATYYCQQYEFFGGGTKVAIK | 0.29 nM
g28-D78-21_CLK09 (antibody, V domains shown) VH: QLQESGAEVKKPGASVRVSCKASGYTFTGNYIHWVRQAPGQGLEWMGWVNPINGGTNHAQKFQGRVTMTRDTSISTAYMELSRLRSDDTTVYYCARVGGLWFGKGWTFDIWGQGTMVTVSS VL: DIQMTQSPSSLSASVGDRVTITCQASQDISILNWYQQKPGKAPKLLIYGASNLETGVPSRFSGSGSGTDFTFTISSLQPEDIATYYCQQYEFFGGGTKVRIK | 0.87 nM
g28-D78-17_CLK09 (antibody, V domains shown) VH: QVQLVQSGAEVKKPGASVRVSCKASGYTFTGNYIHWVRQAPGQGLEWMGWLNPINGGTNHAQKFQGRVTMTRDTSISTAYMELSRLRSDDTTVYYCARVGGLWLGKGWTFDIWGQGTMVTVSS VL: DIQMTQSPSSLSASVGDRVTITCQASQDISILNWYQQKPGKAPKLLIYGASNLETGVPSRFSGSGSGTDFTFTISSLQPEDIATYYCQQYEFFGGGTKVEIK | 0.25 nM
g28-D78-1_CLK09 (antibody, V domains shown) VH: QVQLVQSGAEVKKPGASVKVSCKTSGYTFTAYYVHWVRQAPGQGLEWMGWINPTNGATNYAQIFQGRVTMTRDTSISTAYMELNRLRSDDTAVYYCARVGGLWAFDIWGQGTIVTVSS VL: DIQMTQSPSSLSASVGDRVTITCQTSQHITRNLNWYQQKPGKAPKLLISDAYNLKIGVPSRFSGSGSGTDFTFTISSLQPEDVATYYCQQYEFFGGGTEVEIK | 7.1 nM
g28-D78-19_CLK09 (antibody, V domains shown) VH: QVQLVQSGAEVKKPGASVKVSCKTSGYTFTAYYVHWVRQAPGQGLEWMGWINPTNGATNYAQIFQGRVTMTRDTSISTAYMELNRLRSDDTAVYYCARVGGLWAFDIWGQGTIVTVSS VL: DIQMTQSPSSLSASVGDRVTITCQASQHITRNLNWYQQKPGKAPKLLISDAYNLKIGVPSRFSGSGSGTDFTFTISSLQPEDVATYYCQQYEFFGGGTEVEIK | 8.8 nM
